The values below come from patent US5935824.

In assay [1] the target is N-CBZ-Gly-Pro-Leu-Ala-Pro.
For assay [2], the target named is control peptide Ala-Leu-Lys-Asp-Ala-Gln-Thr-Asn-Ser-Ser-Ser-Phe.
Assay [3] has as its target Lys-Lys peptide Pro-Leu-Ser-Arg-Leu-Ser-Val-Ala-Lys-Lys.
Assay [4] addresses MBP/IgG fusion protein encoded by pMA2-TH-IgG-9 (E. coli; human).

For “carboxypeptidase Y (from UniProt P00729) (enzyme)”, in assay [1], the kinetic constant of hydrolysis of the remaining Pro-Leu bond, ninhydrin assays of released amino acids is 18.4 min⁻¹. The K^1 min^-1 (first order rate constant, flow digestion at 2 ml/min) in the assay with N-CBZ-Pro-Phe was determined as 1.48 min⁻¹; with N-CBZ-Ala-Leu, 27.5 min⁻¹; with N-CBZ-Gly-Pro, 0.16 min⁻¹; with N-CBZ-Ala-Pro, 22.4 min⁻¹; with N-CBZ-Glu-Tyr, 24.2 min⁻¹. Moreover, the rate of digestion at the flow rate of 4 ml/minute with N-CBZ-Phe-Ala turned out to be 42 µmol/min. The same substance gave a removal of the carboxy-terminal phenylalanine, HPLC of the digestion products in assay [2] of 96%. In assay [3], this substance yielded a first order rate constant of hydrolysis of the Lys-Lys bond, ninhydrin assay of free lysine of 0.16 min⁻¹.

Consider thrombin (Sigma) (enzyme), for which the cleavage of the fusion protein, time course on SDS-PAGE (% cleaved after 5 minutes) in [4] worked out at 75.
